Source: patent US20200078399A1 (LEGEND BIOTECH USA, published 2020)

B1: BCAR001 (other)
chain: QVKLEESGGGLVQAGRSLRLSCAASEHTFSSHVMGWFRQAPGKERESVAVIGWRDISTSYADSVKGRFTISRDNAKKTLYLQMNSLKPEDTAVYYCAARRIDAADFDSWGQGTQVTVSSGGGGSAVQLVESGGGLVQAGDSLRLTCTASGRAFSTYFMAWFRQAPGKEREFVAGIAWSGGSTAYADSVKGRFTISRDNAKNTVYLQMNSLKSEDTAVYYCASRGIEVEEFGAWGQGTQVTVSSTSTTTPAPRPPTPAPTIASQPLSLRPEACRPAAGGAVHTRGLDFACDIYIWAPLAGTCGVLLLSLVITLYCKRGRKKLLYIFKQPFMRPVQTTQEEDGCSCRFPEEEEGGCELRVKFSRSADAPAYQQGQNQLYNELNLGRREEYDVLDKRRGRDPEMGGKPRRKNPQEGLYNELQKDKMAEAYSEIGMKGERRRGKGHDGLYQGLSTATKDTYDALHMQALPPR

Key:
Assay in all cases: cell-based or functional assay
[1] = molecular target: human BCMA (B cell mature antigen, CD269, TNFRSF17) on cells (human) (UniProt Q02223)
[2] = molecular target: T1, human BCMA (B cell mature antigen, CD269, TNFRSF17) on cells (human, UniProt Q02223 1-184)
T1 sequence: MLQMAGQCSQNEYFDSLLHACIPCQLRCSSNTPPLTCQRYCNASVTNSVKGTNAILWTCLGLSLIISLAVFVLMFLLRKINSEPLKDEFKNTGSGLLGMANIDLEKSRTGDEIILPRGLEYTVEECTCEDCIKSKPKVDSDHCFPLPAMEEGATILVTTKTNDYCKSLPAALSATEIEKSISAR

[3] = molecular target: T2, CD38 on K562.CD38.Luc cells (UniProt P28907 1-300, limits assumed)
T2 sequence (looked up): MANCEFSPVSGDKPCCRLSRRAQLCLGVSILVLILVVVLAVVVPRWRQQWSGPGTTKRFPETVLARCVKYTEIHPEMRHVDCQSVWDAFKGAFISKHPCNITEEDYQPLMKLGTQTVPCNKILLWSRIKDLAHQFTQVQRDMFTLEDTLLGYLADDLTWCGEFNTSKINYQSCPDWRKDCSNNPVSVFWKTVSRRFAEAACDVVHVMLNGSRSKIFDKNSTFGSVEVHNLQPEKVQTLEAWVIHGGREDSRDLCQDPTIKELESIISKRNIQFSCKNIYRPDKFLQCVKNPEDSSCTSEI

Molecule	percentage of remaining viable RPMI8226.Luc cells (remaining luciferase activity), CAR-T from patient A, E/T 5:1, 20 hours [1] [%]	percentage of remaining viable RPMI8226.Luc cells (remaining luciferase activity), CAR-T from patient A, E/T 20:1, 20 hours [1] [%]	percentage of remaining viable RPMI8226.Luc cells (remaining luciferase activity), CAR-T from patient B, E/T 5:1, 20 hours [1] [%]	percentage of remaining viable RPMI8226.Luc cells (remaining luciferase activity), CAR-T from patient B, E/T 20:1, 20 hours [1] [%]	percentage of remaining viable RPMI8226.Luc cells (remaining luciferase activity), CAR-T from patient C, E/T 5:1, 20 hours [1] [%]	percentage of remaining viable RPMI8226.Luc cells (remaining luciferase activity), CAR-T from patient C, E/T 20:1, 20 hours [1] [%]	IFN gamma release in co-culture with RPMI8226.Luc, mean [2] [pg/mL]	IFN gamma release in co-culture with Raji.Luc, mean [2] [pg/mL]	IFN gamma release in co-culture with K562.CD38.Luc (BCMA negative control; UnT 85.65 pg/ml), mean [3] [pg/mL]
LCAR-B27S CAR	68.6	3.17	84	9.32	101	10.1			
LCAR-B38M CAR	33.4	3.97	40.9	4.45	30	2.56			
B1							1100	796	136
